Molecular target: T1, human CD200R1 recombinant protein (construct not stated) (human, UniProt Q8TD46 27-266, limits assumed)
T1 sequence (looked up): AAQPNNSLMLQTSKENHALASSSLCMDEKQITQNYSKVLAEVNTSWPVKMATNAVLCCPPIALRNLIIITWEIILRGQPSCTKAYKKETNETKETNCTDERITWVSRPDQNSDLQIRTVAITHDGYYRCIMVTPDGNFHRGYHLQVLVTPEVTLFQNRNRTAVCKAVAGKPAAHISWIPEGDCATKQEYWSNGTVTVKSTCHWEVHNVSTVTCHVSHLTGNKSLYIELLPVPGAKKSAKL
Test: ELISA on human CD200R1, normalized absorbance at 450 nm, 0.0192-300 nM; panel 'Human CD200R1'

B1: P001009 (IgG) (antibody, V domains shown)
VH: EVQLLESGGGLVQPGGSLRLSCAASGFTFSSYDMSWVRQAPGKGLEWVSWISHGGGSIYYADSVKGRFTISRDNSKNTLYLQMNSLRAEDTAVYYCARDAPAYSAPLFDYWGQGTLVTVSS
VL: QSVLTQPPSASGTPGQRVTISCSGSSSNIGNNAVNWYQQLPGTAPKLLIYYDSNRPSGVPDRFSGSKSGTSASLAISGLRSEDEADYYCAAWDDSLSGYVFGGGTKLTVL
notes: also called P001009 WT; P001009 wt
EC50 (read off the curve): ~2 nM

— patent US20260263521A1 (AIMED BIO, published 2026)
